Among the data in patent US20120027679A1 (CANON, published 2012) are Kd values, retold here.

For experiment [1], the target named is T1, HER2 (epidermal growth factor receptor 2) on N87 cells (UniProt P04626 23-1255, limits assumed).
T1 construct: whole, on cells; N87 cells are used as HER2-positive cells; also called HER2-positive cells (N87); HER2-expressing cells
As to the kind of experiment: saturation binding to N87 cells, Scatchard plot, apparent Kd. On the procedure: (§1) Each particle was evaluated for its binding capability to HER2-expressing cells. On the day before evaluation, HER2-positive cells (N87 cells) were seeded over a 24-well plate (5×10⁵ cells/well). Next day, after medium removal, 200 μL of a growth medium was placed therein, and the particle sample was then added to each well. The plate was left standing in a CO₂ incubator at 37° C. for 4 hours. Then, the medium containing the particle was removed. The wells were fully washed twice with 1 mL of PBS. After removal of PBS, 1% Triton-X100/PBS solution was added at a concentration of 150 μL/well for cell lysis. The cells were incubated at room temperature for 2 hours or longer. Subsequently, concentrated hydrochloric acid (12 N) was added at a concentration of 150 μL/well, and the cells were incubated at room temperature for 2 hours or longer. The amount of iron in this acid lysate of the sample (6 N HCl solution, 300 μL) was measured to determine the concentration of the particle bound to the cell. A Scatchard plot was prepared from the saturation binding curve of the particle for N87, and an apparent equilibrium dissociation constant (Kd) of the particle for the cell was determined.
(§2) According to Example 8, a Scatchard plot was prepared from the saturation binding curve of each particle for N87 cells, and an apparent equilibrium dissociation constant (Kd) of the particle for the cell was determined.

Experiment [2] concerns the target T1, HER2 (epidermal growth factor receptor …). In words: saturation binding to N87 cells, Scatchard plot, apparent Kd; HBP3 particle. On the procedure:
as §1, with “Subsequently, concentrated hydrochloric acid (12 N) was added at a concentration of 150 μL/well, and the cells were incubated at room temperature for 2 hours or longer.” left out
as §2

Experiment [3] shares this target. In words: saturation binding to N87 cells (cell-bound iron measured), Scatchard plot, apparent Kd. As for the experimental part: as §1
Experiment [4] concerns the target T2, Recombinant Human ErbB2/Fc Chimera (R&D Systems, Inc.) (human, UniProt P04626 23-652).
T2 construct: Bought; Amine-coupled to a CM-5 chip, about 1000 to 2000 RU; also called HER2; antigen; Fc part of the bought chimera not given
As to the kind of experiment: SPR (Biacore X), ErbB2/Fc on CM-5 chip, Scatchard plot of Req, apparent Kd of the particle.

In experiment [5] the target is T1, HER2 (epidermal growth factor receptor …). As to the kind of experiment: saturation binding to N87 cells, Scatchard plot, apparent Kd; HBP2 particle. On the procedure: as §1, with “Subsequently, concentrated hydrochloric acid (12 N) was added at a concentration of 150 μL/well, and the cells were incubated at room temperature for 2 hours or longer.” left out
as §2

For experiment [6] the target is unchanged. As to the kind of experiment: saturation binding to N87 cells, Scatchard plot, apparent Kd; HBP1 particle. On the procedure:
as §1, with “Subsequently, concentrated hydrochloric acid (12 N) was added at a concentration of 150 μL/well, and the cells were incubated at room temperature for 2 hours or longer.” left out
as §2

Where no end group is shown, it is not given here. Side-chain parts run from the residue outwards. maleimide = maleimide group (reactive functional group for coupling a ligand); EO 2 kDa = ethylene oxide linker of molecular weight 2000

On to MARSGLGGKGSC([maleimide-EO 2 kDa-iron oxide nanoparticle 200 nm]) (not fully specified) [HBP1-EO2k-NP-200: HER2-binding peptide-immobilized 200-nm particle with ethylene oxide linker of molecular weight 2000, listing 1 of 4 here], for which the Kd in experiment [1] was 70 pM.

With MARSGLGGKGSC([maleimide-EO 2 kDa-iron oxide nanoparticle 200 nm]) (not fully specified) [HBP4-EO2k-NP-200: HER2-binding peptide-immobilized 200-nm particle with ethylene oxide linker of molecular weight 2000, listing 2 of 4 here], the Kd in experiment [1] was found to be 110 pM.

In the case of MARSGLGGKGSC([maleimide-PEG 300-iron oxide nanoparticle 200 nm]) (not fully specified) [HBP3-EO-NP-200: HER2-binding peptide-immobilized 200-nm particle containing an iron oxide particle], the Kd in experiment [2] is 490 pM.

MARSGLGGKGSC([maleimide-PEG 300-iron oxide nanoparticle 20 nm]) (not fully specified) [HBP-EO-NP-20: HER2-binding peptide-immobilized 20-nm particle containing an iron oxide particle]: the figures for the Kd in experiment [3] and in experiment [4] were 78000 pM and 36700 pM, respectively.

Regarding MARSGLGGKGSC([maleimide-EO 2 kDa-iron oxide nanoparticle 200 nm]) (not fully specified) [HBP3-EO2k-NP-200: HER2-binding peptide-immobilized 200-nm particle with ethylene oxide linker of molecular weight 2000, listing 3 of 4 here], in experiment [1], the Kd stood at 80 pM.

MARSGLGGKGSC([maleimide-EO 2 kDa-iron oxide nanoparticle 200 nm]) (not fully specified) [HBP2-EO2k-NP-200: HER2-binding peptide-immobilized 200-nm particle with ethylene oxide linker of molecular weight 2000, listing 4 of 4 here]: in experiment [1], the Kd came out at 90 pM.

For the molecule MARSGLGGKGSC([maleimide-PEG 300-iron oxide nanoparticle 200 nm]) (not fully specified) [HBP2-EO-NP-200: HER2-binding peptide-immobilized 200-nm particle containing an iron oxide particle], in experiment [5], the Kd is 430 pM.

MARSGLGGKGSC([maleimide-PEG 300-iron oxide nanoparticle 200 nm]) (not fully specified) [HBP1-EO-NP-200: HER2-binding peptide-immobilized 200-nm particle containing an iron oxide particle]: the Kd in experiment [6] is 670 pM.
